Patent publication US20240132578A1

What was measured:
Assay in all cases: cell-based or functional assay
[1] = target: HIV-1 92TH021 envelope glycoprotein (Env) on pseudovirus (HIV-1)
[2] = target: HIV-1 92UG005 envelope glycoprotein (Env) on pseudovirus (HIV-1)
[3] = target: HIV-1 92UG024 envelope glycoprotein (Env) on pseudovirus (HIV-1)
[4] = target: HIV-1 93IN905 envelope glycoprotein (Env) on pseudovirus (HIV-1)
[5] = target: HIV-1 93UG077 envelope glycoprotein (Env) on pseudovirus (HIV-1)
[6] = target: HIV-1 94UG103 envelope glycoprotein (Env) on pseudovirus (HIV-1)
[7] = target: HIV-1 APV13 envelope glycoprotein (Env) on pseudovirus (HIV-1)
[8] = target: HIV-1 APV17 envelope glycoprotein (Env) on pseudovirus (HIV-1)
[9] = target: HIV-1 APV6 envelope glycoprotein (Env) on pseudovirus (HIV-1)
[10] = target: HIV-1 CMU02 envelope glycoprotein (Env) on pseudovirus (HIV-1)
[11] = target: HIV-1 JRCSF envelope glycoprotein (Env) on pseudovirus (HIV-1) (UniProt P20871)
[12] = target: HIV-1 JRFL envelope glycoprotein (Env) on pseudovirus (HIV-1)
[13] = target: HIV-1 MGRM-A-010 envelope glycoprotein (Env) on pseudovirus (HIV-1)
[14] = target: HIV-1 MGRM-AG-005 envelope glycoprotein (Env) on pseudovirus (HIV-1)
[15] = target: HIV-1 MGRM-C-026 envelope glycoprotein (Env) on pseudovirus (HIV-1)
[16] = target: HIV-1 MGRM-C-027 envelope glycoprotein (Env) on pseudovirus (HIV-1)
[17] = target: HIV-1 MGRM-C-028 envelope glycoprotein (Env) on pseudovirus (HIV-1)
[18] = target: HIV-1 MGRM-D-001 envelope glycoprotein (Env) on pseudovirus (HIV-1)
[19] = target: HIV-1 MGRM-D-018 envelope glycoprotein (Env) on pseudovirus (HIV-1)
[20] = target: HIV-1 NL43 envelope glycoprotein (Env) on pseudovirus (HIV-1)
[21] = target: aMLV envelope protein on pseudovirus (negative control virus)
[22] = target: panel of 22 HIV-1 pseudoviruses of Table 52
[23] = target: HIV-1 92BR020 envelope glycoprotein (Env) on pseudovirus (HIV-1)
[24] = target: HIV-1 92RW020 envelope glycoprotein (Env) on pseudovirus (HIV-1)

B1: PGT-135 (5343_B08; 5344_E16) (antibody, V domains shown)
VH: QLQMQESGPGLVKPSETLSLSCTVSGDSIRGGEWGDKDYHWGWVRHSAGKGLEWIGSIHWRGTTHYKESLRRRVSMSIDTSRNWFSLRLASVTAADTAVYFCARHRHHDVFMLVPIAGWFDVWGPGVQVTVSS
VL: EIVMTQSPDTLSVSPGETVTLSCRASQNINKNLAWYQYKPGQSPRLVIFETYSKIAAFPARFVASGSGTEFTLTINNMQSEDVAVYYCQQYEEWPRTFGQGTKVDIK
- IC50, pseudovirus neutralization [1]: > 10 µg/mL
- IC50, pseudovirus neutralization [2]: > 10 µg/mL
- IC50, pseudovirus neutralization [3]: 0.0139 µg/mL
- IC50, pseudovirus neutralization [4]: 0.0183 µg/mL
- IC50, pseudovirus neutralization [5]: > 10 µg/mL
- IC50, pseudovirus neutralization [6]: > 10 µg/mL
- IC50, pseudovirus neutralization [7]: 0.545 µg/mL
- IC50, pseudovirus neutralization [8]: > 10 µg/mL
- IC50, pseudovirus neutralization [9]: > 10 µg/mL
- IC50, pseudovirus neutralization [10]: > 10 µg/mL
- IC50, pseudovirus neutralization [11]: 0.113 µg/mL
- IC50, pseudovirus neutralization [12]: > 10 µg/mL
- IC50, pseudovirus neutralization [13]: > 10 µg/mL
- IC50, pseudovirus neutralization [14]: > 10 µg/mL
- IC50, pseudovirus neutralization [15]: 0.0123 µg/mL
- IC50, pseudovirus neutralization [16]: > 10 µg/mL
- IC50, pseudovirus neutralization [17]: 2.16 µg/mL
- IC50, pseudovirus neutralization [18]: > 10 µg/mL
- IC50, pseudovirus neutralization [19]: 0.0433 µg/mL
- IC50, pseudovirus neutralization [20]: 6.79 µg/mL
- IC50, pseudovirus neutralization [21]: > 10 µg/mL
- % neutralized [22]: 54%
- median IC50, pseudovirus neutralization [22]: 0.11 µg/mL

B2: 5147_N06 (PGT-130) human monoclonal antibody (antibody, V domains shown)
VH: QVQLQESGPGLVKPAETLSLTCSVSGESINTGHYYWGWVRQVPGKGLEWIGHIHYTTAVLHNPSLKSRLTIKIYTLRNQITLRLSNVTAADTAVYHCVRSGGDILYYYEWQKPHWFSPWGPGIHVTVSS
VL: QSALTQPPSASGSLGQSVTISCNGTSSDIGGWNFVSWYQQFPGRAPRLIIFEVNKRPSGVPGRFSGSKSGNSASLTVSGLQSDDEGQYFCSSLFGRWDVVFGGGTKLTVL
- IC50, neutralization of pseudovirus [23]: 1.12 µg/mL
- IC80, neutralization of pseudovirus [23]: > 10 µg/mL
- IC90 (neutralization of pseudovirus) [23]: > 10 µg/mL
- IC95, neutralization of pseudovirus [23]: > 10 µg/mL
- IC50, neutralization of pseudovirus [24]: 0.014 µg/mL
- IC80, neutralization of pseudovirus [24]: 0.508 µg/mL
- IC90 (neutralization of pseudovirus) [24]: 3.68 µg/mL
- IC95, neutralization of pseudovirus [24]: > 10 µg/mL
- IC50, neutralization of pseudovirus [1]: 0.0082 µg/mL
- IC80, neutralization of pseudovirus [1]: 0.0261 µg/mL
- IC90 (neutralization of pseudovirus) [1]: 0.0513 µg/mL
- IC95, neutralization of pseudovirus [1]: 0.0963 µg/mL
- IC50, neutralization of pseudovirus [2]: 0.474 µg/mL
- IC80, neutralization of pseudovirus [2]: > 10 µg/mL
- IC90 (neutralization of pseudovirus) [2]: > 10 µg/mL
- IC95, neutralization of pseudovirus [2]: > 10 µg/mL
- IC50, neutralization of pseudovirus [3]: > 10 µg/mL
- IC80, neutralization of pseudovirus [3]: > 10 µg/mL
- IC90 (neutralization of pseudovirus) [3]: > 10 µg/mL
- IC95, neutralization of pseudovirus [3]: > 10 µg/mL
- IC50, neutralization of pseudovirus [4]: 0.0182 µg/mL
- IC80, neutralization of pseudovirus [4]: 0.272 µg/mL
- IC90 (neutralization of pseudovirus) [4]: 1.31 µg/mL
- IC95, neutralization of pseudovirus [4]: 5.48 µg/mL
- IC50, neutralization of pseudovirus [5]: > 10 µg/mL
- IC80, neutralization of pseudovirus [5]: > 10 µg/mL
- IC90 (neutralization of pseudovirus) [5]: > 10 µg/mL
- IC95, neutralization of pseudovirus [5]: > 10 µg/mL
- IC50, neutralization of pseudovirus [6]: 0.635 µg/mL
- IC80, neutralization of pseudovirus [6]: > 10 µg/mL
- IC90 (neutralization of pseudovirus) [6]: > 10 µg/mL
- IC95, neutralization of pseudovirus [6]: > 10 µg/mL
- IC50, neutralization of pseudovirus [7]: 0.0345 µg/mL
- IC80, neutralization of pseudovirus [7]: 0.573 µg/mL
- IC90 (neutralization of pseudovirus) [7]: 2.88 µg/mL
- IC95, neutralization of pseudovirus [7]: > 10 µg/mL
- IC50, neutralization of pseudovirus [8]: > 10 µg/mL
- IC80, neutralization of pseudovirus [8]: > 10 µg/mL
- IC90 (neutralization of pseudovirus) [8]: > 10 µg/mL
- IC95, neutralization of pseudovirus [8]: > 10 µg/mL
- IC50, neutralization of pseudovirus [9]: > 10 µg/mL
- IC80, neutralization of pseudovirus [9]: > 10 µg/mL
- IC90 (neutralization of pseudovirus) [9]: > 10 µg/mL
- IC95, neutralization of pseudovirus [9]: > 10 µg/mL
- IC50, neutralization of pseudovirus [10]: > 10 µg/mL
- IC80, neutralization of pseudovirus [10]: > 10 µg/mL
- IC90 (neutralization of pseudovirus) [10]: > 10 µg/mL
- IC95, neutralization of pseudovirus [10]: > 10 µg/mL
- IC50, neutralization of pseudovirus [11]: 0.0089 µg/mL
- IC80, neutralization of pseudovirus [11]: 0.0317 µg/mL
- IC90 (neutralization of pseudovirus) [11]: 0.0669 µg/mL
- IC95, neutralization of pseudovirus [11]: 0.134 µg/mL
- IC50, neutralization of pseudovirus [12]: 0.0346 µg/mL
- IC80, neutralization of pseudovirus [12]: 0.751 µg/mL
- IC90 (neutralization of pseudovirus) [12]: 5.72 µg/mL
- IC95, neutralization of pseudovirus [12]: > 10 µg/mL
- IC50, neutralization of pseudovirus [13]: 0.0054 µg/mL
- IC80, neutralization of pseudovirus [13]: 0.0251 µg/mL
- IC90 (neutralization of pseudovirus) [13]: 0.0643 µg/mL
- IC95, neutralization of pseudovirus [13]: 0.164 µg/mL
- IC50, neutralization of pseudovirus [14]: 0.947 µg/mL
- IC80, neutralization of pseudovirus [14]: > 10 µg/mL
- IC90 (neutralization of pseudovirus) [14]: > 10 µg/mL
- IC95, neutralization of pseudovirus [14]: > 10 µg/mL
- IC50, neutralization of pseudovirus [15]: 0.0173 µg/mL
- IC80, neutralization of pseudovirus [15]: 0.263 µg/mL
- IC90 (neutralization of pseudovirus) [15]: 1.32 µg/mL
- IC95, neutralization of pseudovirus [15]: 6.13 µg/mL
- IC50, neutralization of pseudovirus [16]: 0.0052 µg/mL
- IC80, neutralization of pseudovirus [16]: 0.0318 µg/mL
- IC90 (neutralization of pseudovirus) [16]: 0.106 µg/mL
- IC95, neutralization of pseudovirus [16]: 0.464 µg/mL
- IC50, neutralization of pseudovirus [17]: > 10 µg/mL
- IC80, neutralization of pseudovirus [17]: > 10 µg/mL
- IC90 (neutralization of pseudovirus) [17]: > 10 µg/mL
- IC95, neutralization of pseudovirus [17]: > 10 µg/mL
- IC50, neutralization of pseudovirus [18]: > 10 µg/mL
- IC80, neutralization of pseudovirus [18]: > 10 µg/mL
- IC90 (neutralization of pseudovirus) [18]: > 10 µg/mL
- IC95, neutralization of pseudovirus [18]: > 10 µg/mL
- IC50, neutralization of pseudovirus [19]: 0.0378 µg/mL
- IC80, neutralization of pseudovirus [19]: 0.289 µg/mL
- IC90 (neutralization of pseudovirus) [19]: 2.31 µg/mL
- IC95, neutralization of pseudovirus [19]: > 10 µg/mL
- IC50, neutralization of pseudovirus [20]: > 10 µg/mL
- IC80, neutralization of pseudovirus [20]: > 10 µg/mL
- IC90 (neutralization of pseudovirus) [20]: > 10 µg/mL
- IC95, neutralization of pseudovirus [20]: > 10 µg/mL
- IC50, neutralization of pseudovirus [21]: > 10 µg/mL
- IC80, neutralization of pseudovirus [21]: > 10 µg/mL
- IC90 (neutralization of pseudovirus) [21]: > 10 µg/mL
- IC95, neutralization of pseudovirus [21]: > 10 µg/mL

B3: PGT-136 (5329_C19; 5366_P21) (antibody, V domains shown)
VH: QLQLQESGPGLVKPSETLSLTCTVSGGSMRGTDWGENDFHYGWIRQSSAKGLEWIGSIHWRGRTTHYKTSFRSRATLSIDTSNNRFSLTFSFVTAADTAVYYCARHKYHDIFRVVPVAGWFDPWGQGLLVTVSS
VL: EIVMTQSPPTLSVSPGETATLSCRASQNVKNNLAWYQLKPGQAPRLLIFDASSRAGGIPDRFSGSGYGTDFTLTVNSVQSEDFGDYFCQQYEEWPRTFGQGTKVDIK
- IC50, pseudovirus neutralization [1]: > 10 µg/mL
- IC50, pseudovirus neutralization [2]: > 10 µg/mL
- IC50, pseudovirus neutralization [3]: 0.0915 µg/mL
- IC50, pseudovirus neutralization [4]: 0.0135 µg/mL
- IC50, pseudovirus neutralization [5]: > 10 µg/mL
- IC50, pseudovirus neutralization [6]: > 10 µg/mL
- IC50, pseudovirus neutralization [7]: > 10 µg/mL
- IC50, pseudovirus neutralization [8]: > 10 µg/mL
- IC50, pseudovirus neutralization [9]: > 10 µg/mL
- IC50, pseudovirus neutralization [10]: > 10 µg/mL
- IC50, pseudovirus neutralization [11]: > 10 µg/mL
- IC50, pseudovirus neutralization [12]: > 10 µg/mL
- IC50, pseudovirus neutralization [13]: > 10 µg/mL
- IC50, pseudovirus neutralization [14]: > 10 µg/mL
- IC50, pseudovirus neutralization [15]: 0.0065 µg/mL
- IC50, pseudovirus neutralization [16]: > 10 µg/mL
- IC50, pseudovirus neutralization [17]: > 10 µg/mL
- IC50, pseudovirus neutralization [18]: > 10 µg/mL
- IC50, pseudovirus neutralization [19]: > 10 µg/mL
- IC50, pseudovirus neutralization [20]: > 10 µg/mL
- IC50, pseudovirus neutralization [21]: > 10 µg/mL
- % neutralized [22]: 18%
- median IC50, pseudovirus neutralization [22]: 0.05 µg/mL
